Test results as given in article doi:10.1101/2025.01.30.635804, “Emergence of specific binding and catalysis from a designed generalist binding protein” (bioRxiv, 2025).

Test: Kinetic parameters of reported proteins catalyzing the Kemp elimination (literature)
Assay type: biochemical
Settings: literature kcat/KM (M-1s-1) divided by total number of amino acids
From the text: Extended Data Table 4 çKinetic parameters of reported proteins catalyzing the Kemp elimination of 5-nitrobenzisoxazole with base-mediated mechanism.
Protein Description kcat/KM, kcat, KM, Amino Ref
AlleyCat Single mutation of 5.8 ND ND 0.08 64
Lysozyme Double mutation of 1.8 ND ND 0.01 138 […]

B1: tKSI: Natural enzyme; ref 68 (protein, UniProt P00947 1-125, looked up)
Steroid Delta-isomerase: MNTPEHMTAVVQRYVAALNAGDLDGIVALFADDATVEDPVGSEPRSGTAAIREFYANSLKLPLAVELTQEVRAVANEAAFAFTVSFEYQGRKTVVAPIDHFRFNGAGKVVSMRALFGEKNIHAGA
- Amino acid efficiency: 0.02

B2: D38N tKSI: Single mutation of tKSI; ref 68 (protein, UniProt P00947 1-125, looked up, variant D38N)
Steroid Delta-isomerase: MNTPEHMTAVVQRYVAALNAGDLDGIVALFADDATVENPVGSEPRSGTAAIREFYANSLKLPLAVELTQEVRAVANEAAFAFTVSFEYQGRKTVVAPIDHFRFNGAGKVVSMRALFGEKNIHAGA
- Amino acid efficiency: 140
